In the supplement of paper PMC10567573:

B1: FBXO3 (parent)
chain: HDPLWRRHCKKYWLISEEEKTQKN

Variants of: B1
Assay: protein stability index of a GFP-peptide fusion (GPS, HEK-293T) (PSI 1-6); higher = more stable
Conditions: c terminus: a fixed tail appended
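Further: lentivirally expressed fusions sorted by FACS into six bins by GFP to DsRed ratio, PSI derived from sequencing read proportions per bin multiplied by bin number.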

With HNPLWRRHCKKYWLISEEEKTQKN [D2N] as the variant, how does the protein stability index read?
The protein stability index was 2.78.

For HRPLWRRHCKKYWLISEEEKTQKN [D2R], which protein stability index is on record?
The protein stability index was 2.86.

Which protein stability index does the source give for HTPLWRRHCKKYWLISEEEKTQKN [D2T] here?
Its protein stability index is 1.87.

For HEPLWRRHCKKYWLISEEEKTQKN [D2E], which protein stability index is on record?
The protein stability index was 2.62.

For HMPLWRRHCKKYWLISEEEKTQKN [D2M], which protein stability index is on record?
The protein stability index was 2.63.

Which protein stability index does the source give for HDPLWRRHCKGYWLISEEEKTQKN [K11G] here?
The protein stability index was 2.7.

With HDPLWRRHCKPYWLISEEEKTQKN [K11P] as the variant, how does the protein stability index read?
The protein stability index was 2.67.

For HDPLWRRHCKSYWLISEEEKTQKN [K11S], which protein stability index is on record?
The protein stability index was 2.79.

For HDPLWRRHCKYYWLISEEEKTQKN [K11Y], which protein stability index is on record?
Its protein stability index is 2.31.

With HDPLWRRHCKWYWLISEEEKTQKN [K11W] as the variant, how does the protein stability index read?
Its protein stability index is 2.41.

With HDPLWRRHCKCYWLISEEEKTQKN [K11C] as the variant, how does the protein stability index read?
The protein stability index was 2.63.

For HDPLWRRHCKKYWLISEEEKTQKY [N24Y], which protein stability index is on record?
The protein stability index was 2.44.

For HDPLWRRHCKKYWLISEEEKTQKR [N24R], which protein stability index is on record?
The protein stability index was 3.22.

With HDPLWRRHCKKYWLISEEEKTQKC [N24C] as the variant, how does the protein stability index read?
Its protein stability index is 2.73.

Which protein stability index does the source give for HDPLWRRHCKKYWLISEEEKTQKM [N24M] here?
The protein stability index was 3.4.

For HDPLWRRHCKKYWLISEEEKTQKG [N24G], which protein stability index is on record?
The protein stability index was 2.61.

With HDPLWRRHCKKYWLISEEEKTQKL [N24L] as the variant, how does the protein stability index read?
The protein stability index was 2.81.

With HDPLWRRHNKKYWLISEEEKTQKN [C9N] as the variant, how does the protein stability index read?
Its protein stability index is 4.14.

For HDPLWRRHGKKYWLISEEEKTQKN [C9G], which protein stability index is on record?
Its protein stability index is 4.08.

With HDPLWRRHPKKYWLISEEEKTQKN [C9P] as the variant, how does the protein stability index read?
Its protein stability index is 4.15.

Which protein stability index does the source give for HDPLWRRHYKKYWLISEEEKTQKN [C9Y] here?
The protein stability index was 3.31.

Which protein stability index does the source give for HDPLWRRHHKKYWLISEEEKTQKN [C9H] here?
Its protein stability index is 3.42.

Which protein stability index does the source give for HDPLWRRHDKKYWLISEEEKTQKN [C9D] here?
Its protein stability index is 4.83.

Which protein stability index does the source give for HDPLWRRHCKKHWLISEEEKTQKN [Y12H] here?
Its protein stability index is 3.72.

Which protein stability index does the source give for HDPLWRRHCKKTWLISEEEKTQKN [Y12T] here?
The protein stability index was 4.13.

With HDPLWRWHCKKYWLISEEEKTQKN [R7W] as the variant, how does the protein stability index read?
The protein stability index was 2.68.

With HDPLWRCHCKKYWLISEEEKTQKN [R7C] as the variant, how does the protein stability index read?
Its protein stability index is 2.95.

For HDPLWRAHCKKYWLISEEEKTQKN [R7A], which protein stability index is on record?
Its protein stability index is 3.39.

With HDPLWRPHCKKYWLISEEEKTQKN [R7P] as the variant, how does the protein stability index read?
Its protein stability index is 4.42.

For HDPLWRKHCKKYWLISEEEKTQKN [R7K], which protein stability index is on record?
The protein stability index was 3.22.

For HDPLWRRHCKKYWLISEESKTQKN [E19S], which protein stability index is on record?
The protein stability index was 3.05.

With HDPLWRRHCKKYWLISEEEKTVKN [Q22V] as the variant, how does the protein stability index read?
The protein stability index was 3.44.

With HDPLWRRHCKKYWLISEEEKTFKN [Q22F] as the variant, how does the protein stability index read?
Its protein stability index is 2.56.

For HDPLWRRHCKKYWLISEEEKTNKN [Q22N], which protein stability index is on record?
The protein stability index was 3.19.

With HDPLWRRHCKKYQLISEEEKTQKN [W13Q] as the variant, how does the protein stability index read?
Its protein stability index is 4.28.

Which protein stability index does the source give for HDPLWRRHCKKYMLISEEEKTQKN [W13M] here?
The protein stability index was 3.76.

With HDPLWRRHCKKYELISEEEKTQKN [W13E] as the variant, how does the protein stability index read?
Its protein stability index is 4.52.

For HDPLWRRHCKKYYLISEEEKTQKN [W13Y], which protein stability index is on record?
Its protein stability index is 3.19.

With HDPLWRRHCKKYKLISEEEKTQKN [W13K] as the variant, how does the protein stability index read?
The protein stability index was 4.65.

With HDPLWRRHCKKYWLVSEEEKTQKN [I15V] as the variant, how does the protein stability index read?
Its protein stability index is 3.85.

For HDPLWRRHCKKYWLHSEEEKTQKN [I15H], which protein stability index is on record?
Its protein stability index is 2.72.

With HDPLWRRHCKKYWLASEEEKTQKN [I15A] as the variant, how does the protein stability index read?
Its protein stability index is 3.38.

With HDPLWRRHCKKYWLLSEEEKTQKN [I15L] as the variant, how does the protein stability index read?
Its protein stability index is 3.44.

For HDPLWRRHCKKYWLESEEEKTQKN [I15E], which protein stability index is on record?
Its protein stability index is 3.88.

For HDPLWRRHCKKYWLCSEEEKTQKN [I15C], which protein stability index is on record?
The protein stability index was 3.73.

For TDPLWRRHCKKYWLISEEEKTQKN [H1T], which protein stability index is on record?
Its protein stability index is 3.66.

With SDPLWRRHCKKYWLISEEEKTQKN [H1S] as the variant, how does the protein stability index read?
The protein stability index was 3.62.

With RDPLWRRHCKKYWLISEEEKTQKN [H1R] as the variant, how does the protein stability index read?
The protein stability index was 2.8.

Which protein stability index does the source give for KDPLWRRHCKKYWLISEEEKTQKN [H1K] here?
Its protein stability index is 3.21.

Which protein stability index does the source give for YDPLWRRHCKKYWLISEEEKTQKN [H1Y] here?
The protein stability index was 2.12.

Which protein stability index does the source give for LDPLWRRHCKKYWLISEEEKTQKN [H1L] here?
Its protein stability index is 3.85.

Which protein stability index does the source give for ADPLWRRHCKKYWLISEEEKTQKN [H1A] here?
Its protein stability index is 3.78.

Which protein stability index does the source give for HDPLMRRHCKKYWLISEEEKTQKN [W5M] here?
The protein stability index was 4.39.

Which protein stability index does the source give for HDPLDRRHCKKYWLISEEEKTQKN [W5D] here?
The protein stability index was 4.18.

With HDPLRRRHCKKYWLISEEEKTQKN [W5R] as the variant, how does the protein stability index read?
Its protein stability index is 3.42.

For HDVLWRRHCKKYWLISEEEKTQKN [P3V], which protein stability index is on record?
The protein stability index was 3.84.

Which protein stability index does the source give for HDSLWRRHCKKYWLISEEEKTQKN [P3S] here?
Its protein stability index is 3.38.

With HDRLWRRHCKKYWLISEEEKTQKN [P3R] as the variant, how does the protein stability index read?
Its protein stability index is 2.91.

Which protein stability index does the source give for HDGLWRRHCKKYWLISEEEKTQKN [P3G] here?
Its protein stability index is 3.1.

With HDQLWRRHCKKYWLISEEEKTQKN [P3Q] as the variant, how does the protein stability index read?
The protein stability index was 3.5.

With HDPLWRRHCKKYWLISEDEKTQKN [E18D] as the variant, how does the protein stability index read?
Its protein stability index is 3.2.

With HDPLWRRHCKKYWLISEPEKTQKN [E18P] as the variant, how does the protein stability index read?
Its protein stability index is 2.91.

For HDPLWRRHCKKYWLISECEKTQKN [E18C], which protein stability index is on record?
The protein stability index was 2.95.

Which protein stability index does the source give for HDPLWRRHCKKYWLISELEKTQKN [E18L] here?
The protein stability index was 2.46.

For HDPLWRRHCKKYWLISETEKTQKN [E18T], which protein stability index is on record?
Its protein stability index is 2.89.

For HDPLWRRHCKKYWLISEGEKTQKN [E18G], which protein stability index is on record?
The protein stability index was 2.75.

For HDPLWRRHCKKYWLISENEKTQKN [E18N], which protein stability index is on record?
The protein stability index was 3.15.

For HDPLWRRHCKKYWLISEHEKTQKN [E18H], which protein stability index is on record?
The protein stability index was 3.3.

With HDPLWRRHCKKYWLISEEEKCQKN [T21C] as the variant, how does the protein stability index read?
Its protein stability index is 3.39.

With HDPLWRRHCKKYWLISEEEKGQKN [T21G] as the variant, how does the protein stability index read?
The protein stability index was 2.91.

For HDPLWRRHCKKYWLISEEEKRQKN [T21R], which protein stability index is on record?
The protein stability index was 2.83.

Which protein stability index does the source give for HDPLWRRHCKKYWLISEEEKAQKN [T21A] here?
Its protein stability index is 2.84.

Which protein stability index does the source give for HDPLWRRHCKKYWLISEEEHTQKN [K20H] here?
Its protein stability index is 2.95.

With HDPLWRRHCKKYWLISEEECTQKN [K20C] as the variant, how does the protein stability index read?
Its protein stability index is 2.9.

For HDPLWRRHCKKYWLISEEEKTQQN [K23Q], which protein stability index is on record?
Its protein stability index is 3.27.

Which protein stability index does the source give for HDPLWRRHCKKYWLISEEEKTQMN [K23M] here?
The protein stability index was 3.19.

With HDPLWRRHCKKYWLISEEEKTQCN [K23C] as the variant, how does the protein stability index read?
The protein stability index was 3.09.

Which protein stability index does the source give for HDPLWRRHCKKYWLISEEEKTQIN [K23I] here?
Its protein stability index is 2.93.

For HDPLWRRHCKKYWLISEEEKTQFN [K23F], which protein stability index is on record?
The protein stability index was 2.85.

For HDPLWRRHCKKYWWISEEEKTQKN [L14W], which protein stability index is on record?
Its protein stability index is 3.31.

For HDPLWRRHCKKYWQISEEEKTQKN [L14Q], which protein stability index is on record?
The protein stability index was 3.58.

Which protein stability index does the source give for HDPLWRRHCKKYWMISEEEKTQKN [L14M] here?
The protein stability index was 3.27.

For HDPLWRRHCKKYWCISEEEKTQKN [L14C], which protein stability index is on record?
The protein stability index was 3.3.

For HDPLWRRHCKKYWSISEEEKTQKN [L14S], which protein stability index is on record?
The protein stability index was 3.88.

With HDPLWRRHCKKYWIISEEEKTQKN [L14I] as the variant, how does the protein stability index read?
Its protein stability index is 2.99.

For HDPLWRRGCKKYWLISEEEKTQKN [H8G], which protein stability index is on record?
The protein stability index was 3.31.

With HDPLWRRYCKKYWLISEEEKTQKN [H8Y] as the variant, how does the protein stability index read?
The protein stability index was 2.2.

With HDPLWRRRCKKYWLISEEEKTQKN [H8R] as the variant, how does the protein stability index read?
The protein stability index was 3.

Which protein stability index does the source give for HDPLWRRACKKYWLISEEEKTQKN [H8A] here?
The protein stability index was 2.63.

Which protein stability index does the source give for HDPLWRRHCKKYWLISIEEKTQKN [E17I] here?
Its protein stability index is 2.31.

Which protein stability index does the source give for HDPLWRRHCKKYWLISVEEKTQKN [E17V] here?
The protein stability index was 2.23.

Which protein stability index does the source give for HDPLWDRHCKKYWLISEEEKTQKN [R6D] here?
The protein stability index was 4.04.

Which protein stability index does the source give for HDPLWIRHCKKYWLISEEEKTQKN [R6I] here?
Its protein stability index is 2.58.

With HDPLWRRHCKKYWLILEEEKTQKN [S16L] as the variant, how does the protein stability index read?
The protein stability index was 2.72.
